Here are results for seven sequences from the DeepSol protein solubility set.

The data set can be described thus: soluble on expression in E. coli; label from the status in PepcDB or PDB records.
With “MKCAICDSVALSLHFGAPSCKACAAFFRRTVALDITYDCITGTLDCEVNFERRMACKRCRYQKCIDNNMQRYLVQSKKGRPDASTANGIENPTTSASPSIPSPFSPPCPSSHNSAPSGLLSPMETDEIQKLNEHFFKMDSNLNKSRRMAFTDSRLLDIFSGVCKMPFEKHQLQPFDFRSYRGYQKQEYVMLFNYANTLPGFQELSNASQNFLFRIACGVDYVISSSYYTLCIGTESNLLINQDGTYIQMMPLPLMGDEPGTELMFTRKEELEKYRNIIKPRVNSWLEFIPLFKSLELSFEENAILKALCCWQTAHFKLEECDKENVRKQKSLLVQCLLKFCIDTYGEEEGPARAGNIILFSSSISVSLMGTSRNVVYGLKLPYISKS”, the “soluble on expression in E. coli” value is given as “not soluble”. Take “MNNVTFEQLQETLYHEKLANGLDVYILPKTGFNKTYATFTTKYGSIDSEFIPLNQKEALHVPDGIAHFLEHKMFEDEEGDVFQLFSKQGASCNAFTSFTRTAYLFSSTTNVKKNVETLLDFVQHPYFTEESVEKEKGIIGQEITMYDDNPDWRNYFGVIENMYEHHPVKIDIAGTIPSISKITKDLLYTCYETFYHPSNMLLFIVGPVDVNEMMTLVKENQGKKEFKPAGDIQRFFPAEPEKVAKPHSVISMSVQTPKCLVGYKEKQPVRQGKDLLVRELGINVLLELMFGQGSKQYEQLDDEGLINDTFSFDHTSEYGFGFTIMGGDTKSPNRLAERIEEMVEAFKEQPLDEAAVKRVIKKKIGGFLRSLNSPEFIANQFTRYEFNKMNLFDVVPTLESLTVEKLTDILHDHFQKERFTVCQVKPEGYEEG”: the “soluble on expression in E. coli” value is on record as “not soluble”. Next, “MKSVKEIRKSQVNSMISDQYEIFHVKDMVSPEKTIYHYHDFYEVHCTLKGVATFFLDGHQFDVEAGTVLLIHYHDLHRIIKQSTDDFERMYIFLTPDFLQQRSSKRTNLSACFQHFGQRRSKVIKVDVAKLANYLTPLDHSPLPEEYGADVRYEQQLLDFLIYLNQLVLKEENESQPKQMIENER”: “not soluble”; “GMDQESNATSQDILKQHAAHYESDMGGLPEALVQLAEYAPETFDAYSRMRTTMLKSEADGAKLPLKYKHLILVVLDAIRDEPIGIVNHTRAAMNAGLSVDELIEGILLGIIVYGMPAWGKTGRKAVTFAVEFEKELAGKRT”: “soluble”. The value for “MERSAIQIPAGRIDDAVAKVDGLVGELMQNTGIPGMAVAIVHGGKTLYAKGFGVRDVGKGGGPDNKVDADTVFQLASVSKSVGATVVAHAVTDNVVTWDTPVVSKLPWFALRDPYVTGQVTIADLYSHRSGLPDHAGDLLEDLGYDRRQVLQRLKYLPLAPFRISYAYTNFGVTAAAEAVAAAAGQSWEDLSDEVLYRPLGMGSTSSRFTDFLARPNHAVNHVKVADRWEARYQRDPDAQSPAGGVSSSLNDMTHWLAMVLADGVYNGRRITSPEALLLVYTPQVISRHPVSPRARASFYGYGFNVGVTSSGRTEYSHSGAFGLGAAANFVVLPSEDLAIIALTNAGPIGVPETLTAEFMDLVQYGQVREDWAALYKKAFAPLNELAGSLVGKQSPANPAPSRPLNDYVGVYANDYWGPATVTYHDGQLRLSLGPKNQTFDLTHWDGDTFTFTLSTENALPGSISKATFAGDTLNLEYYDADKLGTFTRLEHHHHHH” was “not soluble”. The value for “MLEQPIGVIDSGVGGLTVAKEIMRQLPKENIIYVGDTKRCPYGPRPEEEVLQYTWELTNYLLENHHIKMLVIACNTATAIALDDIQRSVGIPVVGVIQPGARAAIKVTDNQHIGVIGTENTIKSNAYEEALLALNPDLKVENLACPLLVPFVESGKFLDQTADEIVKTSLYPLKDTSIDSLILGCTHYPILKEAIQRYMGEHVNIISSGDETAREVSTILSYKGLLNQSPIAPDHQFLTTGARDQFAKIADDWFGHEVGHVECISLQEPIKR” was “soluble”; that for “MIHVREFQASDSDVVLHLLDLKDIINSSSFSEKVFQLSESGDFLGLVAEANQSGKHQVVGCAFLRLLETISRGLHCQIEELAIDKAWLHQGVGKSLMETATSWAKERGVGDIYVDSPYASIAVKEGIDSVFVRDEVLEVAQQYEAEKEELQESLKKQYNTTISKLEKEYEAKKQQQDETIHNLQTQLEDATQYLEEQQAEENELLNIDPSSPRNHTGPYPRGRGFWGTLCFPIRKTCGPGSCLRLPSGPASVRGSTDRSN” was “soluble”.
